We go through 45 molecules from US20220363718A1 (Bicycle, published 2022).

Assay [1] deals with T1, Biotinylated human TSLP (hTSLP(29-159)-Avi) (human, biotinylated (C-terminal Avi-tag)).
T1 construct: also called thymic stromal lymphopoietin
The assay is described as follows: SPR, biotinylated hTSLP on streptavidin chip, peptide injected.

For assay [2], the target named is TSLP (as used in the human PBMC assay) (UniProt Q969D9 29-159). The assay is described as follows: cell-based or functional assay.

*1 amine or outer side, *2 acyl side, *3 side chain or, on linkers, in order; H or OH if unused. Bridges are numbered along the chain shown (N, C = ends). Where no end group is shown, it is not given here. [ ]: non-standard residue; d: D form. The star is where a group is joined. TATA = O=C(CC[*:1])N1CN(C(=O)CC[*:2])CN(C(=O)CC[*:3])C1; Trp(1-Me) = Cn1cc(C[C@H](N)C(=O)O)c2ccccc21; Arg(Me2a) = CN(C)C(=N)NCCC[C@H](N)C(=O)O; Phe(4-F) = N[C@@H](Cc1ccc(F)cc1)C(=O)O; tBuAla = CC(C)(C)C[C@H](N)C(=O)O; NMeA = CN[C@@H](C)C(=O)O; Octanoyl = CCCCCCCC(=O)*

T1 sequence (chain, as listed by the source limits assumed): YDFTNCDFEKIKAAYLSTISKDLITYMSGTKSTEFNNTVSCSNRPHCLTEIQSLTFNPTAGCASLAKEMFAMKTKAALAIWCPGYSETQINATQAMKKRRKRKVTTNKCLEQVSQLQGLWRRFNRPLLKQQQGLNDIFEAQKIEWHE

For the molecule NRSPSECDWHWEYDCWLSC (linker 7-15-19 via TATA; not fully specified (C-terminus)) [Example 217], the Kd in assay [1] was determined as 0.86 µM.

For the molecule SNATKQCDWHWEYDCWLSCA (linker 7-15-19 via TATA; not fully specified (C-terminus)) [Example 210], binding in assay [1] was characterised by a dissociation constant (Kd) of 0.18 µM.

Regarding ACRDLDPWTCSSWWLCANV (linker 2-10-16 via TATA) [Example 186], the “CCL17 % Inhibition @ 10 µM, 666 pM TSLP” value in assay [2] is -1%.

For DHDCTWNWEYDCWLDCA (linker 4-12-16 via TATA) [Example 200], the “CCL17 % Inhibition @ 10 µM, 666 pM TSLP” value in assay [2] is -42%.

In turn, SQECQWNWTYDCWLGCA (linker 4-12-16 via TATA) [Example 203] gave a Kd in assay [1] of 0.32 µM.

CDWHWEYDCWLSCYDNEMS (linker 1-9-13 via TATA; not fully specified (C-terminus)) [Example 223]: the Kd in assay [1] worked out at 3 µM.

In assay [1], CDWHWEYDCWLSCEPETGQ (linker 1-9-13 via TATA; not fully specified (C-terminus)) [Example 216] had an equilibrium dissociation constant (Kd) of 0.32 µM.

B1: Example 15 (peptide)
peptide: Octanoyl-C[NMeA][Trp(1-Me)][tBuAla]QDC[Trp(1-Me)][Arg(Me2a)]G[Phe(4-F)]C-NH2
modifications: linker 1-7-12 via TATA
SMILES: CCCCCCCC(=O)N[C@H]1CSCCC(=O)N2CN3CN(C2)C(=O)CCSC[C@H](NC(=O)[C@H](CC(=O)O)NC(=O)[C@H](CCC(N)=O)NC(=O)[C@H](CC(C)(C)C)NC(=O)[C@H](Cc2cn(C)c4ccccc24)NC(=O)[C@H](C)N(C)C1=O)C(=O)N[C@@H](Cc1cn(C)c2ccccc12)C(=O)N[C@@H](CCCNC(=N)N(C)C)C(=O)NCC(=O)N[C@@H](Cc1ccc(F)cc1)C(=O)N[C@H](C(N)=O)CSCCC3=O
For B1, in assay [2], the “CCL17 % Inhibition @ 10 µM, 50 pM TSLP” value came out at 58% and the “CCL17 % Inhibition @ 10 µM, 400 pM TSLP” value is 64%.

On to ACQWLEDCWRGFCSSSDQS (linker 2-8-13 via TATA) [Example 59], for which the “CCL17 % Inhibition @ 10 µM, 666 pM TSLP” value in assay [2] was found to be 2%.

As to ACDWHWEYDCWLSCDPSSKQA (linker 2-10-14 via TATA) [Example 212], the Kd in assay [1] amounted to 0.25 µM.

As for Ac-CQWLEDCWRGFC (linker 1-7-12 via TATA) [Example 79], the “CCL17 % Inhibition @ 10 µM, 666 pM TSLP” value in assay [2] was -18%.

On to ACHWLEDCWRGFCHLE (linker 2-8-13 via TATA; not fully specified (C-terminus)) [Example 75], for which, in assay [2], the “CCL17 % Inhibition @ 10 µM, 666 pM TSLP” value was -2%.

With ACQWLEDCWRGFCA (linker 2-8-13 via TATA) [Example 68], the “CCL17 % Inhibition @ 10 µM, 666 pM TSLP” value in assay [2] came out at 33%.

In the case of ACRDLDPWTCSSWWLCA (linker 2-10-16 via TATA; not fully specified (C-terminus)) [Example 164], the “CCL17 % Inhibition @ 10 µM, 666 pM TSLP” value in assay [2] amounted to 0%.

As to CQWLEDCWRGXC (not fully specified; Ac-CQWLEDCWRG[Nal2]C; 3 Cys cyclised with TATA) [Example 50], in assay [2], the “CCL17 % Inhibition @ 10 µM, 666 pM TSLP” value was determined as 33%.

As to ACDWHWEYDCWLSCEPETGQA (linker 2-10-14 via TATA) [Example 221], the “CCL17 % Inhibition @ 10 µM, 666 pM TSLP” value in assay [2] is -10%.

Ac-CDWHWEYDCWLSC (linker 1-9-13 via TATA; not fully specified (C-terminus)) [Example 218] returned a Kd in assay [1] of 2 µM.

Regarding CQWLEDCWRGXC (not fully specified; Ac-CQWLEDCWRG[3-MePhe]C; 3 Cys cyclised with TATA) [Example 74], the “CCL17 % Inhibition @ 10 µM, 666 pM TSLP” value in assay [2] stood at 43%.

In the case of TMEYRDCQWLEDCWRGFCA (linker 7-13-18 via TATA) [Example 56], the “CCL17 % Inhibition @ 10 µM, 666 pM TSLP” value in assay [2] was 40%.

CQWLEDCWRGXC (Ac-CQWLEDCWRG[4-ClPhe]C; 3 Cys cyclised with TATA) [Example 14]: in assay [2], the “CCL17 % Inhibition @ 10 µM, 666 pM TSLP” value was 14%.

As to Ac-ACQWLEDCWRGFCPLD (linker 2-8-13 via TATA) [Example 53], the “CCL17 % Inhibition @ 10 µM, 666 pM TSLP” value in assay [2] is -2%.

B2: Example 16 (peptide)
peptide: CQXLEDCXRGXC
modifications: not fully specified; Ac-CQ[TrpMe]LEDC[TrpMe]RG[4-FPhe]C; 3 Cys cyclised with TATA
As for B2, in assay [2], the “CCL17 % Inhibition @ 10 µM, 666 pM TSLP” value came to 52%.

Consider YATTQVCRDLDPWTCSSWWLCA (linker 7-15-21 via TATA) [Example 171], for which the “CCL17 % Inhibition @ 10 µM, 666 pM TSLP” value in assay [2] is 36%.

In the case of ACDWDWDYDCWLPCFAE (linker 2-10-14 via TATA; not fully specified (C-terminus)) [Example 208], in assay [1], the Kd amounted to 0.34 µM.

As for CQWLEDCWRGXC (not fully specified; Ac-CQWLEDCWRG[3,4diClPhe]C; 3 Cys cyclised with TATA) [Example 11], in assay [2], the “CCL17 % Inhibition @ 10 µM, 666 pM TSLP” value worked out at 43%.

CDWHWEYDCWLSCGDMSVS (linker 1-9-13 via TATA; not fully specified (C-terminus)) [Example 222]: the Kd in assay [1] is 0.45 µM.

On to CDWHWEYDCWLSCGAGESS (linker 1-9-13 via TATA; not fully specified (C-terminus)) [Example 228], for which the affinity in assay [1], expressed as Kd, was 2.3 µM.

As for CQWLEDCWRGXC (not fully specified; Ac-CQWLEDCWRG[Nal1]C; 3 Cys cyclised with TATA) [Example 47], the “CCL17 % Inhibition @ 10 µM, 666 pM TSLP” value in assay [2] was -7%.

As for ACTWLDDCWRGFCA (linker 2-8-13 via TATA; not fully specified (C-terminus)) [Example 76], the “CCL17 % Inhibition @ 10 µM, 666 pM TSLP” value in assay [2] was 0%.

Consider AHPCADLDPWTCPNWWLCA (linker 4-12-18 via TATA; not fully specified (C-terminus)) [Example 165], for which the “CCL17 % Inhibition @ 10 µM, 666 pM TSLP” value in assay [2] worked out at 33%.

As to DEQHHECDWHWEYDCWLSCA (linker 7-15-19 via TATA; not fully specified (C-terminus)) [Example 209], binding in assay [1] was put at a Kd of 0.91 µM.

Consider GTDSAECQWLEDCWRGFCA (linker 7-13-18 via TATA) [Example 45], for which, in assay [2], the “CCL17 % Inhibition @ 10 µM, 666 pM TSLP” value was determined as 0%.

SHVCRDLDPWTCDSWWLCA (linker 4-12-18 via TATA) [Example 188]: the “CCL17 % Inhibition @ 10 µM, 666 pM TSLP” value in assay [2] is -4%.

With ADGCEWNWAYDCWLGCA (linker 4-12-16 via TATA) [Example 201], the Kd in assay [1] is 0.17 µM.

In the case of CDWHWEYDCWLSCANSEFE (linker 1-9-13 via TATA; not fully specified (C-terminus)) [Example 227], in assay [1], the Kd was 0.74 µM.

On to ANDCVWHWEYDCWLDCA (linker 4-12-16 via TATA; not fully specified (C-terminus)) [Example 220], for which binding in assay [1] was put at a Kd of 0.34 µM.

On to ACDWHWEYDCWLSCA (linker 2-10-14 via TATA) [Example 199], for which the “CCL17 % Inhibition @ 10 µM, 666 pM TSLP” value in assay [2] is -3%.

SPPCVWLDDCWRGFCA (linker 4-10-15 via TATA) [Example 73]: the “CCL17 % Inhibition @ 10 µM, 666 pM TSLP” value in assay [2] is -11%.

Take ACTWLEDCWRGFCADS (linker 2-8-13 via TATA) [Example 63]: in assay [2], the “CCL17 % Inhibition @ 10 µM, 666 pM TSLP” value is 24%.

For the molecule ACRDLDPWTCSSWWLCADGLYDA (linker 2-10-16 via TATA) [Example 193], the “CCL17 % Inhibition @ 10 µM, 666 pM TSLP” value in assay [2] stood at 47%.

For RAPCPDLDPWTCSDWWLCA (linker 4-12-18 via TATA) [Example 187], the “CCL17 % Inhibition @ 10 µM, 666 pM TSLP” value in assay [2] was determined as 11%.

In the case of AETCKWMWEYDCWLSCA (linker 4-12-16 via TATA) [Example 204], in assay [1], the Kd stood at 0.1 µM. In other words, the sub-micromolar range.

In assay [1], ACSLDPWSCHNWWTCA (linker 2-9-15 via TATA; not fully specified (C-terminus)) [Example 229] displayed a Kd of 9.9 µM.

Consider ACDWNWTYDCWLDCAPI (linker 2-10-14 via TATA) [Example 206], for which the Kd in assay [1] was 0.43 µM.

In assay [1], SPTEPPCDWHWEYDCWLSC (linker 7-15-19 via TATA; not fully specified (C-terminus)) [Example 215] yielded a Kd of 0.24 µM.
